# Experimental data published in patent publication US20140017764.
# Changes are numbered by the printed parent chain.
# B1: TEV-PE10, purified (protein)
# chain: HHHHHHSLFKGPRDYNPISSTICHLTNESDGHTTSLYGIGFGPFIITNKHLFRRNNGTLLVQSLHGVFKVKNTTTLQQHLIDGRDMIIIRMPKDFPPFPQKLKFREPQREERICLVTTNFQTKRMSSMVSDTSCTFPSSDGIFWKHWIQTKRGQCGSPLVSTRDGFIVGIHSASNFANTNKYFTSVPKNFMELLTNQEAQQWVSGWRLNADSVLWGGHKVFIPKPEEPFQPVKEATQLMN
# B2: TEV-PH21, purified (protein)
# chain: B1 chain with T21A, R124S, T150A, R152P, S157C, S172T, S174A, K181N, I222M
# B3: wild-type TEV protease (TEV-P), purified (protein)
# chain: B1 chain with R124S, R152D, A177T, K181N, I222M
# Biological target: […] peptide substrate
Protein,KM [µM],kcat [s⁻¹],kcat/KM [M⁻¹ s⁻¹]
B1,120,0.0194,160
B2,820,0.0171,20.7
B3,110,0.13,1200
